Experimental data taken from article PMC4801485.

Molecular target: cyclophilin from Geobacillus kaustophilus (Geobacillus kaustophilus)
Test: NMR line shape analysis

GSFGPDLRAGD [peptide substrate …]
koff of the trans isomer (kBA): 720 s⁻¹ | kon of the trans isomer (kAB): 5.2e+06 M⁻¹ s⁻¹
